Earlier results on one molecule are cited in patent US6823267B2, “Structural prediction of allosterism” (The Johns Hopkins University, priority 2000, dated 2004).

In the data set the target is glycerol kinase (Escherichia coli, UniProt P0A6F3). Conditions: at 25° C.
glycerol kinase, sequence (P0A6F3 whole entry): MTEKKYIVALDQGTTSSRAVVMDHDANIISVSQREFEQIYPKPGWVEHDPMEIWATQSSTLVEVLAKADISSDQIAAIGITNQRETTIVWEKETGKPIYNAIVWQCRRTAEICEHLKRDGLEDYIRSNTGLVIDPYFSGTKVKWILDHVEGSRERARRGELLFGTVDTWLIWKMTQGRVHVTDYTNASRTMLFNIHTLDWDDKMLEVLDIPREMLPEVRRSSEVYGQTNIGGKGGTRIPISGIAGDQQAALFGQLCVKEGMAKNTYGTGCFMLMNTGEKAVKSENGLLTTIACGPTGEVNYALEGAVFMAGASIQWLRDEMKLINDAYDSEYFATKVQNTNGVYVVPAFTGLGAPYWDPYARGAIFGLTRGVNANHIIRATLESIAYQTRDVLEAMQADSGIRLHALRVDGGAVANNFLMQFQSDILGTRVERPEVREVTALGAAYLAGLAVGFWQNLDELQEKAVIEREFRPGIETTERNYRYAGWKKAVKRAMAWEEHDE

B1: IIAGlc: protein that is an allosteric inhibitor of the enzyme glycerol kinase (protein, UniProt P69783 2-169, looked up)
PTS system glucose-specific …: GLFDKLKSLVSDDKKDTGTIEIIAPLSGEIVNIEDVPDVVFAEKIVGDGIAIKPTGNKMVAPVDGTIGKIFETNHAFSIESDSGVELFVHFGIDTVELKGEGFKRIAEEGQRVKVGDTVIEFDLPLLEEKAKSTLTPVVISNMDEIKELIKLSGSVTVGETPVIRIKK
Turning to B1, the “association constant of IIAGlc to glycerol kinase” value is reported as ~10^5 M^−1.
